Experimental findings from PMC5694663 are described below.

This assay deals with JunB-6×His. Description: co-purification.

Usually stoichiometry N stands for a count of units in the complex or per binding partner.

B1: mCherry-BATF1 (natural protein)
chain: MPHSSDSSDSSFSRSPPPGKQDSSDDVRKVQRREKNRIAAQKSRQRQTQKADTLHLESEDLEKQNAALRKEIKQLTEELKYFTSVLSSHEPLCSVLASGTPSPPEVVYSAHAFHQPHISSPRFQP
B1: the stoichiometry N amounted to 1.
